Measurements taken from paper PMC2938230 (Nucleic Acids Research, 2010).

Target: T1, GAL4 DBD-hRARγ (human, UniProt P13631 1-454)
T1 sequence (looked up): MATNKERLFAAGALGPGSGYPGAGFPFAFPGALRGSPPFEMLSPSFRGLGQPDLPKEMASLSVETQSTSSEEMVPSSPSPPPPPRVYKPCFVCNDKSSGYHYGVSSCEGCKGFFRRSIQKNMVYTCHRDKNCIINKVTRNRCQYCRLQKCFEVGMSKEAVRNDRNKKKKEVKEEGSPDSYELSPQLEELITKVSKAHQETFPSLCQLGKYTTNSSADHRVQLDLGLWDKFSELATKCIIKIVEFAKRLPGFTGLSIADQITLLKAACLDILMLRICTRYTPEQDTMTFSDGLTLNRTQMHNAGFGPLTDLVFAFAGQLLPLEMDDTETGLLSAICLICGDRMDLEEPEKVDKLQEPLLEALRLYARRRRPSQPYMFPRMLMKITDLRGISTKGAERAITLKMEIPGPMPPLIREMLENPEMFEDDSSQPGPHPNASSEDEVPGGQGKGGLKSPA
Assay: two-hybrid

B1: GAL4 AD-hADA3 (pACT2) (natural protein, human, UniProt O75528-1 1-432, looked up)
chain: MSELKDCPLQFHDFKSVDHLKVCPRYTAVLARSEDDGIGIEELDTLQLELETLLSSASRRLRVLEAETQILTDWQDKKGDRRFLKLGRDHELGAPPKHGKPKKQKLEGKAGHGPGPGPGRPKSKNLQPKIQEYEFTDDPIDVPRIPKNDAPNRFWASVEPYCADITSEEVRTLEELLKPPEDEAEHYKIPPLGKHYSQRWAQEDLLEEQKDGARAAAVADKKKGLMGPLTELDTKDVDALLKKSEAQHEQPEDGCPFGALTQRLLQALVEENIISPMEDSPIPDMSGKESGADGASTSPRNQNKPFSVPHTKSLESRIKEELIAQGLLESEDRPAEDSEDEVLAELRKRQAELKALSAHNRTKKHDLLRLAKEEVSRQELRQRVRMADNEVMDAFRKIMAARQKKRTPTKKEKDQAWKTLKERESILKLLDG
- fold interaction relative to RARα: 3 fold
